The test deals with histone deacetylase 5 (rat (endogenous in Sprague-Dawley rat cardiac myocytes)). Briefly: co-IP; HDAC5 precipitated from equal amounts of cardiac myocyte nuclear extracts, 14-3-3 detected by western blotting; cells treated with vehicle, ET1 (0.1 µM), PPAR ligands (troglitazone 1 µM, fenofibrate 10 µM, GW501516 1 µM), with or without shRNA knockdown of DGKζ. A general note: In western blotting, separated proteins are transferred to a membrane and probed.

In turn, “14-3-3 chaperone proteins (from UniProt P63102 1-245) (natural protein)” showed a percent of normalized 14-3-3 in HDAC5 precipitates of ET1-treated cells vs. vehicle-treated control (% vs. control) of 138.
